Key:
GST-Nck1 SH3-3 = GST-Nck1 SH3-3 (UniProt P16333); experiment: SPR
purified β2-chimaerin = target: T1, purified β2-chimaerin (UniProt P52757-1 1-468); experiment: co-sedimentation
T1 sequence: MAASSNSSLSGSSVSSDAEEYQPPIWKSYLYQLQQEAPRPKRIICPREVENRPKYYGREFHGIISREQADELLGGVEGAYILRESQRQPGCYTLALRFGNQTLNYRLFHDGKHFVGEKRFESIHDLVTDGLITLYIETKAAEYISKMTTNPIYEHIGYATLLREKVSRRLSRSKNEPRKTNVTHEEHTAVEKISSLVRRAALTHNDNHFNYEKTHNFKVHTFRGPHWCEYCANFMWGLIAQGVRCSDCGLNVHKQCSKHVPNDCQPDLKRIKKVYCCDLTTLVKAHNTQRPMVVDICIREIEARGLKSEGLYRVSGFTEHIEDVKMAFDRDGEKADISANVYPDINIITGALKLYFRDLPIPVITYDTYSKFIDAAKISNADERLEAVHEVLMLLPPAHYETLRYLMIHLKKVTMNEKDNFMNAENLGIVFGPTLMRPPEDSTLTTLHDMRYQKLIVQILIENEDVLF

Molecule	Kd (GST-Nck1 SH3-3) [µM]	Kd (purified β2-chimaerin) [nM]
WT-β2-chim peptide (β2-chimaerin amino acids 34–59)	18	–
Nck1 SH3-3 (purified third SH3 domain of Nck1) (domain or fragment) QVLHVVQALYPFSSSNDEELNFEKGDVMDVIEKPENDPEWWKCRKINGMVGLVPKNYVTVMQN	–	1700

From PMC3700536 (Nature communications, 2013)
